For series [1], the target named is T1, Integration Host Factor (IHF) (Escherichia coli (purified from E. coli …, UniProt P0A6X7;P0A6Y1 1-99;1-94)). Description: EMSA; 70 mM KCl, no Mg2+; 5 mM Tris-HCl pH 7.4-7.6, 70 mM KCl, 0.1 mM EDTA, 0.5-10% ethylene glycol, fluorescence at 10 C; Mg buffer: 5 mM Tris-HCl pH 7.4, 1 mM MgCl2, 10% ethylene glycol; stopped flow 20 C with 0.01% NP-40. The settings on record: protein: recombinant; copies: 1;1; label: none for EMSA (SYBR Green); immobile four-way junction of 4 strands (34 nt), four 17 bp arms. For orientation: In EMSA bound probe runs differently from free probe, usually more slowly.
T1 sequence (P0A6X7 whole entry, chain 1 of 2): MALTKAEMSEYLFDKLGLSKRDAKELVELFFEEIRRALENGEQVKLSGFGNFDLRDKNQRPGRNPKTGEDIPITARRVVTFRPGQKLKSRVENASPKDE
T1 sequence (P0A6Y1 whole entry, chain 2 of 2): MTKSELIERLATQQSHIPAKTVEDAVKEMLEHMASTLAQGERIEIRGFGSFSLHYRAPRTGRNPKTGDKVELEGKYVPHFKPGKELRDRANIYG

In series [2] the target is T1, Integration Host Factor (IHF). Description: fluorescence intensity; 70 mM KCl; 0.5 nM DNA; printed as <=2.2; 5 mM Tris-HCl pH 7.4-7.6, 70 mM KCl, 0.1 mM EDTA, 0.5-10% ethylene glycol, fluorescence at 10 C; Mg buffer: 5 mM Tris-HCl pH 7.4, 1 mM MgCl2, 10% ethylene glycol; stopped flow 20 C with 0.01% NP-40. The settings on record: protein: recombinant; copies: 1;1; label: 6-MI; immobile four-way junction of 4 strands (34 nt), four 17 bp arms.

For series [3] the target is unchanged. Description: EMSA; 70 mM KCl; apparent; 5 mM Tris-HCl pH 7.4-7.6, 70 mM KCl, 0.1 mM EDTA, 0.5-10% ethylene glycol, fluorescence at 10 C; Mg buffer: 5 mM Tris-HCl pH 7.4, 1 mM MgCl2, 10% ethylene glycol; stopped flow 20 C with 0.01% NP-40. To be noted: protein: recombinant, copies: 1;1, label: none for EMSA (SYBR Green).
Series [4] shares this target. Description: fluorescence intensity; 70 mM KCl; end-labeled; 5 mM Tris-HCl pH 7.4-7.6, 70 mM KCl, 0.1 mM EDTA, 0.5-10% ethylene glycol, fluorescence at 10 C; Mg buffer: 5 mM Tris-HCl pH 7.4, 1 mM MgCl2, 10% ethylene glycol; stopped flow 20 C with 0.01% NP-40. The settings on record: protein: recombinant, copies: 1;1, label: none for EMSA (SYBR Green), immobile four-way junction of 4 strands, four 17 bp arms.

Series [5] shares this target. Description: fluorescence anisotropy; 70 mM KCl; 2 nM DNA; 5 mM Tris-HCl pH 7.4-7.6, 70 mM KCl, 0.1 mM EDTA, 0.5-10% ethylene glycol, fluorescence at 10 C; Mg buffer: 5 mM Tris-HCl pH 7.4, 1 mM MgCl2, 10% ethylene glycol; stopped flow 20 C with 0.01% NP-40. The settings on record: protein: recombinant; copies: 1;1; label: fluorescein (end); immobile four-way junction of 4 strands (34 nt), four 17 bp arms.

Series [6] has the same target. Description: fluorescence anisotropy; 1 mM Mg2+?; 5 mM Tris-HCl pH 7.4-7.6, 70 mM KCl, 0.1 mM EDTA, 0.5-10% ethylene glycol, fluorescence at 10 C; Mg buffer: 5 mM Tris-HCl pH 7.4, 1 mM MgCl2, 10% ethylene glycol; stopped flow 20 C with 0.01% NP-40. To be noted: protein: recombinant; copies: 1;1; label: none for EMSA (SYBR Green); 5' TAMRA for fluorescence intensity; donor-acceptor pair for stopped flow; four-way junction of 4 strands (20 nt), four 10 bp arms.

For series [7] the target is unchanged. Description: EMSA; 1 mM Mg2+; apparent; 5 mM Tris-HCl pH 7.4-7.6, 70 mM KCl, 0.1 mM EDTA, 0.5-10% ethylene glycol, fluorescence at 10 C; Mg buffer: 5 mM Tris-HCl pH 7.4, 1 mM MgCl2, 10% ethylene glycol; stopped flow 20 C with 0.01% NP-40. The settings on record: protein: recombinant; copies: 1;1; label: none for EMSA (SYBR Green); 5' TAMRA for fluorescence intensity; donor-acceptor pair for stopped flow; four-way junction of 4 strands (20 nt), four 10 bp arms.

Series [8] has the same target. Description: fluorescence intensity; 70 mM KCl; 5'-TAMRA; 5 mM Tris-HCl pH 7.4-7.6, 70 mM KCl, 0.1 mM EDTA, 0.5-10% ethylene glycol, fluorescence at 10 C; Mg buffer: 5 mM Tris-HCl pH 7.4, 1 mM MgCl2, 10% ethylene glycol; stopped flow 20 C with 0.01% NP-40. To be noted: protein: recombinant; copies: 1;1; label: none for EMSA (SYBR Green); 5' TAMRA for fluorescence intensity; donor-acceptor pair for stopped flow; four-way junction of 4 strands (20 nt), four 10 bp arms.

B1: J34 junction (structured_DNA)
DNA 1: CCTTCAACCACCGCTCAACTCAACTGCAGTCTGG
DNA 2: CCAGACTGCAGTTGAGTCCTTGCTAGGACGGAGG
DNA 3: CCTCCGTCCTAGCAAGGGGCTGCTACCGGAAGGG
DNA 4: CCCTTCCGGTAGCAGCCTGAGCGGTGGTTGAAGG
Regarding B1, in series [1], the Kd was determined as 0.058 ± 0.036 µM.

B2: J34 junction, 6-MI labeled (structured_DNA)
DNA 1: CCTTCAACCACCGCTCAACTCAACTGCAGTCTGG
DNA 2: CCAGACTGCAGTTGAGTCCTTGCTAGGACGGAGG
DNA 3: CCTCCGTCCTAGCAAGGGGCTGCTACCGGAAGGG
DNA 4: CCCTTCCGGTAGCAGCCTGAGCGGTGGTTGAAGG
modifications: 6-methylisoxanthopterin (6-MI) nucleoside
In the case of B2, the Kd in series [2] was less than 0.0022 µM.

B3: JH1 junction (structured_DNA)
DNA 1: CCTTCAACCACCGCTCATGATTACTGCAGTCTGG
DNA 2: CCAGACTGCAGTAATCAACTACTTAGGACGGAGG
DNA 3: CCTCCGTCCTAAGTAGTGGCTGCTACCGGAAGGG
DNA 4: CCCTTCCGGTAGCAGCCTGAGTGGTGGTTGAAGG
B3: the Kd in series [3] (end label for fluorescence, immobile four-way junction of 4 strands, four 17 bp arms) amounted to 0.065 ± 0.008 µM; in series [4], 0.0092 ± 0.002 µM.

B4: J34 junction, fluorescein end-labeled (structured_DNA)
DNA 1: CCTTCAACCACCGCTCAACTCAACTGCAGTCTGG
DNA 2: CCAGACTGCAGTTGAGTCCTTGCTAGGACGGAGG
DNA 3: CCTCCGTCCTAGCAAGGGGCTGCTACCGGAAGGG
DNA 4: CCCTTCCGGTAGCAGCCTGAGCGGTGGTTGAAGG
Consider B4, for which the Kd in series [5] was found to be 0.002 µM.

B5: J20 junction (structured_DNA)
DNA 1: CCACCGCTCAACTCAACTGC
DNA 2: GCAGTTGAGTCCTTGCTAGG
DNA 3: CCTAGCAAGGGGCTGCTACC
DNA 4: GGTAGCAGCCTGAGCGGTGG
Regarding B5, the Kd in series [6] is 0.043 ± 0.011 µM; in series [7], 0.514 ± 0.141 µM; in series [3] (5' TAMRA for fluorescence intensity, donor-acceptor pair for stopped flow, four-way junction of 4 strands (20 nt), four 10 bp arms), 0.17 ± 0.04 µM; in series [8], 0.0044 ± 0.0005 µM.

(Values after PMC9820253, “Integration Host Factor Binds DNA Holliday Junctions”.)
